Results as given in the Human Domainome abundance scans (Beltran et al. 2025).
± gives the uncertainty stated by the source.

B1: Ankyrin-2, residues 3571 to 3650; numbered along this chain, Q01484 (parent)
chain: ERLAYIADHLGFSWTELARELDFTEEQIHQIRIENPNSLQDQSHALLKYWLERDGKHATDTNLVECLTKINRMDIVHLME

Variants of: B1
Assay: abundance fitness (aPCA) (normalised: wild type 0, dead -1); higher = more abundant; growth selection in yeast, the domain comes from the species named
Details: Homo sapiens

D8L and D8T are within error of each other in abundance fitness: 0.052 ± 0.09 for the first, 0.088 ± 0.21 for the second.

D8Q and D8R are within error of each other in abundance fitness: 0.234 ± 0.26 for the first, 0.031 ± 0.11 for the second.

D8G and D8W are within error of each other in abundance fitness: -0.116 ± 0.12 for the first, -0.342 ± 0.39 for the second.

D8V and D8A are within error of each other in abundance fitness: -0.232 ± 0.11 for the first, 0.034 ± 0.18 for the second.

D8I and D8S are within error of each other in abundance fitness: -0.237 ± 0.41 for the first, 0.051 ± 0.17 for the second.

D8K and D8P are within error of each other in abundance fitness: -0.006 ± 0.17 for the first, 0.011 ± 0.12 for the second.

D8E and E16G are within error of each other in abundance fitness: -0.075 ± 0.46 for the first, -0.065 ± 0.057 for the second.

E16H and E16R are within error of each other in abundance fitness: 0.028 ± 0.17 for the first, 0.026 ± 0.054 for the second.

E16W and E16P are within error of each other in abundance fitness: -0.297 ± 0.12 for the first, -0.233 ± 0.075 for the second.

E16L and E16N are within error of each other in abundance fitness: 0.032 ± 0.07 for the first, 0.026 ± 0.17 for the second.

E16I and E16Q are within error of each other in abundance fitness: 0.061 ± 0.22 for the first, 0.202 ± 0.098 for the second.

E16A and E16D are within error of each other in abundance fitness: -0.037 ± 0.066 for the first, 0.053 ± 0.12 for the second.

E16S and E16F are within error of each other in abundance fitness: -0.028 ± 0.05 for the first, -0.09 ± 0.13 for the second.

E16M and E16T are within error of each other in abundance fitness: -0.056 ± 0.11 for the first, 0.038 ± 0.12 for the second.

E16V and T24A are within error of each other in abundance fitness: -0.104 ± 0.091 for the first, -0.053 ± 0.061 for the second.

T24S and T24N are within error of each other in abundance fitness: -0.025 ± 0.054 for the first, -0.005 ± 0.088 for the second.

T24K and T24F are within error of each other in abundance fitness: 0.162 ± 0.17 for the first, -0.053 ± 0.1 for the second.

T24E and T24Q are within error of each other in abundance fitness: -0.02 ± 0.16 for the first, 0.025 ± 0.17 for the second.

T24D and T24Y are within error of each other in abundance fitness: 0.064 ± 0.17 for the first, 0.053 ± 0.13 for the second.

T24L and T24R are within error of each other in abundance fitness: -0.144 ± 0.057 for the first, -0.027 ± 0.069 for the second.

T24C and T24W are within error of each other in abundance fitness: -0.193 ± 0.18 for the first, -0.409 ± 0.1 for the second.

T24V and T24H are within error of each other in abundance fitness: -0.248 ± 0.079 for the first, -0.075 ± 0.28 for the second.

T24G and T24I are within error of each other in abundance fitness: -0.014 ± 0.057 for the first, -0.154 ± 0.099 for the second.

T24P and Y5V are within error of each other in abundance fitness: -0.138 ± 0.059 for the first, -0.084 ± 0.19 for the second.

Y5P and Y5H are within error of each other in abundance fitness: -0.019 ± 0.17 for the first, 0.013 ± 0.28 for the second.

Y5M and Y5G are within error of each other in abundance fitness: -0.559 ± 0.43 for the first, -0.231 ± 0.45 for the second.

Y5A and Y5W are within error of each other in abundance fitness: 0.066 ± 0.14 for the first, -0.143 ± 0.26 for the second.

Y5R and Y5L are within error of each other in abundance fitness: -0.505 ± 0.32 for the first, 0.096 ± 0.29 for the second.

Y5N and Y5C are within error of each other in abundance fitness: 0.386 ± 0.43 for the first, 0.137 ± 0.17 for the second.

L3N and L3E are within error of each other in abundance fitness: -0.074 ± 0.26 for the first, -0.289 ± 0.23 for the second.

L3P and L3H are within error of each other in abundance fitness: -0.215 ± 0.064 for the first, -0.038 ± 0.13 for the second.

Going from L3A to L3F, the abundance fitness rises from -0.164 ± 0.065 to 0.143 ± 0.075.

Going from L3K to L3S, the abundance fitness rises from -0.179 ± 0.11 to 0.043 ± 0.069.

L3M and L3Y are within error of each other in abundance fitness: 0.028 ± 0.095 for the first, -0.155 ± 0.2 for the second.

L3V and L3W are within error of each other in abundance fitness: 0.005 ± 0.089 for the first, -0.117 ± 0.05 for the second.

L3I and L3Q are within error of each other in abundance fitness: 0.05 ± 0.24 for the first, -0.031 ± 0.076 for the second.

L3R and L3C are within error of each other in abundance fitness: -0.077 ± 0.051 for the first, -0.086 ± 0.22 for the second.

L3G and L3T are within error of each other in abundance fitness: -0.181 ± 0.11 for the first, -0.019 ± 0.075 for the second.

G11P and G11I are within error of each other in abundance fitness: -0.536 ± 0.076 for the first, -0.271 ± 0.28 for the second.

First: G11W
Second: G11S
The abundance fitness of the first is lower: -0.277 ± 0.099 for the first, 0.015 ± 0.054 for the second.

G11T and G11L are within error of each other in abundance fitness: -0.141 ± 0.072 for the first, -0.117 ± 0.058 for the second.

G11K and G11Q are within error of each other in abundance fitness: -0.054 ± 0.13 for the first, -0.006 ± 0.079 for the second.

G11A and G11M are within error of each other in abundance fitness: -0.058 ± 0.064 for the first, -0.223 ± 0.14 for the second.

G11F and G11R are within error of each other in abundance fitness: -0.039 ± 0.12 for the first, -0.074 ± 0.063 for the second.

G11N and G11Y are within error of each other in abundance fitness: 0.336 ± 0.39 for the first, -0.123 ± 0.18 for the second.

G11D and G11H are within error of each other in abundance fitness: -0.052 ± 0.12 for the first, -0.111 ± 0.15 for the second.

G11C and H9D are within error of each other in abundance fitness: -0.106 ± 0.092 for the first, 0.021 ± 0.088 for the second.

H9V and H9K are within error of each other in abundance fitness: -0.043 ± 0.38 for the first, -0.232 ± 0.34 for the second.

H9G and H9C are within error of each other in abundance fitness: -0.025 ± 0.2 for the first, 0.006 ± 0.4 for the second.

H9Y and H9R are within error of each other in abundance fitness: -0.409 ± 0.4 for the first, -0.032 ± 0.22 for the second.

H9L and H9P are within error of each other in abundance fitness: -0.02 ± 0.2 for the first, -0.268 ± 0.17 for the second.

H9A and H9T are within error of each other in abundance fitness: -0.113 ± 0.24 for the first, -0.33 ± 0.24 for the second.

First: L10S
Second: L10V
The abundance fitness of the first is lower: -0.668 ± 0.07 for the first, -0.014 ± 0.08 for the second.

L10K and L10P are within error of each other in abundance fitness: -0.911 ± 0.37 for the first, -0.819 ± 0.11 for the second.

L10D and L10W are within error of each other in abundance fitness: -0.509 ± 0.2 for the first, -0.498 ± 0.13 for the second.

Compared with L10M, L10A is lower in abundance fitness: -0.205 ± 0.11 for the first, -0.64 ± 0.099 for the second.

L10H and L10G are within error of each other in abundance fitness: -0.948 ± 0.37 for the first, -0.704 ± 0.051 for the second.

L10Y and L10Q are within error of each other in abundance fitness: -0.464 ± 0.14 for the first, -0.791 ± 0.28 for the second.

First: L10C
Second: L10R
The abundance fitness of the first is higher: -0.184 ± 0.11 for the first, -1.09 ± 0.16 for the second.

L21T and L21S are within error of each other in abundance fitness: -0.412 ± 0.076 for the first, -0.33 ± 0.069 for the second.

Compared with L21E, L21I is higher in abundance fitness: -0.849 ± 0.14 for the first, -0.268 ± 0.17 for the second.

L21F and L21A are within error of each other in abundance fitness: 0.069 ± 0.17 for the first, -0.086 ± 0.061 for the second.

L21W and L21Q are within error of each other in abundance fitness: -0.093 ± 0.08 for the first, -0.24 ± 0.095 for the second.

L21G and L21N are within error of each other in abundance fitness: -0.072 ± 0.056 for the first, -0.149 ± 0.45 for the second.

Going from L21K to L21M, the abundance fitness rises from -0.32 ± 0.098 to -0.107 ± 0.088.

L21V and L21C are within error of each other in abundance fitness: -0.225 ± 0.077 for the first, -0.488 ± 0.23 for the second.

T15K and T15C are within error of each other in abundance fitness: 0.079 ± 0.14 for the first, -0.062 ± 0.12 for the second.

T15L and T15D are within error of each other in abundance fitness: 0.036 ± 0.061 for the first, -0.195 ± 0.19 for the second.

T15P and T15A are within error of each other in abundance fitness: 0.01 ± 0.063 for the first, -0.02 ± 0.055 for the second.

T15E and T15V are within error of each other in abundance fitness: -0.185 ± 0.15 for the first, -0.009 ± 0.072 for the second.

First: T15G
Second: T15F
The abundance fitness of the first is higher: -0.042 ± 0.06 for the first, -0.277 ± 0.12 for the second.

T15R and T15Q are within error of each other in abundance fitness: -0.057 ± 0.059 for the first, -0.083 ± 0.15 for the second.

T15N and T15S are within error of each other in abundance fitness: -0.038 ± 0.21 for the first, 0.018 ± 0.053 for the second.

T15M and T15Y are within error of each other in abundance fitness: -0.21 ± 0.13 for the first, -0.433 ± 0.43 for the second.

T15H and T15W are within error of each other in abundance fitness: -0.309 ± 0.2 for the first, -0.058 ± 0.077 for the second.

R2S and R2G are within error of each other in abundance fitness: 0.026 ± 0.17 for the first, -0.208 ± 0.34 for the second.

R2D and R2W are within error of each other in abundance fitness: 0.107 ± 0.35 for the first, 0.056 ± 0.24 for the second.

R2P and R2V are within error of each other in abundance fitness: -0.454 ± 0.39 for the first, 0.024 ± 0.23 for the second.

Compared with W14C, W14F is higher in abundance fitness: -0.63 ± 0.13 for the first, -0.199 ± 0.17 for the second.

Compared with W14S, W14A is higher in abundance fitness: -0.812 ± 0.12 for the first, -0.572 ± 0.089 for the second.

Compared with W14M, W14G is lower in abundance fitness: -0.394 ± 0.18 for the first, -0.978 ± 0.13 for the second.

W14E and W14Q are within error of each other in abundance fitness: -1.13 ± 0.25 for the first, -0.999 ± 0.43 for the second.

W14V and W14L are within error of each other in abundance fitness: -0.283 ± 0.058 for the first, -0.268 ± 0.077 for the second.

For W14R, the abundance fitness was -0.994 ± 0.16.
